Consider three molecules from patent US10501493B2, “Broad spectrum antibiotics” (priority 2011, dated 2019).

For orientation: MIC means the smallest concentration in the dilution series that meets the test's criterion for growth inhibition. In general, Kd refers to the concentration at which binding is half-saturated. Low values mean tighter binding, high ones weaker binding.

One series deals with C. glutamicum DSM 44475. In words: In vitro antimicrobial activity, MIC by broth micro-dilution. The conditions noted are these: Corynebacterium glutamicum, DSM44475, read-out: MIC. In kind it is cell-based. (In general: Dilution methods test growth across graded concentrations, often in twofold steps.)
In series [1] the test system is E. coli MIG1655 LepB(P84L). The description is as above. The conditions noted are these: Escherichia coli. In kind it is cell-based. The method in brief: (§1)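 CLSI broth micro-dilution MIC against two-fold serial compound dilutions. Inoculum came from colonies grown 24 h at 35° C. or 28° C., suspended in cation-adjusted Mueller Hinton broth at 1*10^7 CFU/ml, of which 5 μl was added per 100 μl well. LepB(P84L) is a proline-mutant SPase strain with heightened arylomycin susceptibility.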

The subject of the next series is E. coli MIG1655. Described as above. In kind it is cell-based. Particulars: Escherichia coli, MIG1655. In short, it runs like this:
as §1

Series [2] concerns P. aeruginosa PA01 LepB(P84L). The series is described as above. In kind it is cell-based. The conditions noted are these: Pseudomonas aeruginosa. The method in brief:
as §1

Another series concerns P. aeruginosa PA01. The description is as above. Particulars: Pseudomonas aeruginosa, read-out: MIC. In kind it is cell-based. The method in brief: as §1
For another series, the system named is R. equi DSM 6939. Described as above. In kind it is cell-based. Particulars: Rhodococcus (subgen. Prescottella) equi, DSM6939, read-out: MIC. The method in brief:
as §1

The next series concerns S. agalactiae ATCC 13813. The series is described as above. In kind it is cell-based. Particulars: Streptococcus agalactiae, ATCC13813, read-out: MIC.
Another series concerns S. agalactiae COH-1. The description is as above. In kind it is cell-based. Particulars: Streptococcus agalactiae, COH1; S. agalactiae COH-1; read-out: MIC.
The subject of a further series is S. aureus ATCC 29213. The series is described as above. The conditions noted are these: Staphylococcus aureus, ATCC29213, read-out: MIC. In kind it is cell-based.
Series [3] has as its system S. aureus NCTC-8325 SpsB(P295). Described as above. In kind it is cell-based. The conditions noted are these: Staphylococcus aureus, NCTC8325.
The test system of series [4] is S. epidermidis ATCC 12228. The series is described as above. In kind it is cell-based. The conditions noted are these: Staphylococcus epidermidis, ATCC12228, read-out: MIC.
Series [5] deals with S. epidermidis RP62A SpsIB(S29P). The description is as above. In kind it is cell-based. Particulars: Staphylococcus epidermidis.
Series [6] deals with S. epidermidis RP62A SpsIB(S31P). The description is as above. In kind it is cell-based. Particulars: Staphylococcus epidermidis.
In a further series the test system is S. epidermidis RP62A. The series is described as above. In kind it is cell-based. Particulars: Staphylococcus epidermidis; S. epidermidis RP62A; read-out: MIC.
The test system of a further series is S. pneumoniae D39. Described as above. In kind it is cell-based. Particulars: Streptococcus pneumoniae; S. pneumoniae D39; read-out: MIC.
In a further series the test system is S. pneumoniae R800. The series is described as above. In kind it is cell-based. The conditions noted are these: Streptococcus pneumoniae, read-out: MIC. The method in brief:
as §1

In the next series the test system is S. pyogenes ATCC 19615. Described as above. In kind it is cell-based. The conditions noted are these: Streptococcus pyogenes, ATCC19615, read-out: MIC.
The test system of the next series is S. pyogenes M15448. Described as above. The conditions noted are these: Streptococcus pyogenes; S. pyogenes M15448; read-out: MIC. In kind it is cell-based. In short, it runs like this:
as §1

The target of the next series is T1, E. coli SPase (Escherichia coli, UniProt P00803).
T1 construct: Full length His-tagged E. coli SPase proteins were expressed in E. coli BL21(DE3); His-tag; made in house; host or cells: E. coli BL21(DE3)
Nature of the series: Steady state binding constant (Kd) determination by fluorescence increase. The protocol: (§2) Full length His-tagged E. coli SPase proteins were expressed in E. coli BL21(DE3) containing the plasmid pET23-lepB, P. A. Smith et al. Chem Biol 2010, 1223-1231. Briefly, saturated overnight cultures grown in 20 ml of Luria-Bertani medium supplemented with ampicillin were subcultures into 1.5 L of Luria-Bertani, and shaken at 37° C. until an optical density at 600 nm of 0.4-0.5 was achieved. Protein expression was induced with Isopropyl β-D-1-thiogalactopyranoside (ITPG) at a final concentration of […], and purified using nickel affinity chromatography. Full length His-tagged S. aureus SPase protein was expressed similarly from E. coli BL21(DE3) containing the plasmid pCDF1-SaSpsB or pCDF1-SaSpsB(P29S) and purified similarly to the E. coli protein with the following exceptions. SPase protein was solubilized using 300 mM NaCl, 20 mM Tris pH 8.06, 5 mM Imidazole, 10% glycerol, 1% Triton X-100, prior to purification in Ni-NTA Superflow resin and resin bound protein was washed in a similar buffer containing 1% Elugent in place of Triton X-100 prior to protein eluted in wash buffer supplemented with 300 mM imidazole. Protein purify was judged to exceed 95% by visual inspection of SDS-PAGE followed by Comassie staining. All protein concentrations were determined by BCA assay.
(§3) Steady state binding constants (Kds) of compounds were determined by measuring an increase in fluorescence (λex=280 nm, λem=405 nm) that occurs upon binding to E. coli or S. aureus SPase protein. Two-fold serial dilutions of compounds were prepared in 100% DMSO, and compounds were diluted into binding buffer consisting of 100 mM NaCl, 20 mM Tris-HCl pH 7.4, 1 mM EDTA, 1% n-octyl-3-glucopyranoside (Anatrace), and 10% glycerol, with the final DMSO concentration equal to 1%. 70 μl of the resulting solutions containing various concentrations of compound in binding buffer were aliquoted into triplicate wells of a black polystyrene 384-well plate. 5 μl of blank solution or E. coli or S. aureus protein at concentrations of 750 or 3750 nM respectively, were added to each set of wells for a given inhibitor concentration. Plates were incubated for 14 hours and fluorescence read on an EnVision Multilable plate reader (Perkin Elmer™). Differences in fluorescence values between wells with and without protein were determined and background corrected for protein auto fluorescence. The corrected fluorescence difference data was fit to the quadratic equilibrium binding curve using the non-linear regression analysis software Solver (Frontline Systems®) run in Excel 2010, (Microsoft®), using experimentally determined quantum efficiency constants to convert fluorescence into nanomoles of protein/compound complex.

The target of another series is T2, S. aureus SPase (Staphylococcus aureus, UniProt P0A070).
T2 construct: Full length His-tagged S. aureus SPase protein was expressed similarly; His-tag; made in house; host or cells: E. coli BL21(DE3)
Described as above. The protocol:
as §2, §3

For series [7], the target named is Full length His-tagged S. aureus SPase (S. aureus) (UniProt P0A070). In words: fluorescence binding titration; compound conc. 125 (unit inferred).
For series [8] the target is unchanged. In words: fluorescence binding titration; compound conc. 250 (unit inferred).
Series [9] shares this target. Nature of the series: fluorescence binding titration; compound conc. 500 (unit inferred).
The target is the same in series [10]. Nature of the series: fluorescence binding titration; compound conc. 1000 (unit inferred).
Series [11] has the same target. Nature of the series: fluorescence binding titration; compound conc. 2000 (unit inferred).
Series [12] has the same target. Nature of the series: fluorescence binding titration; compound conc. 4000 (unit inferred).
Series [13] has the same target. Nature of the series: fluorescence binding titration; compound conc. 62.5 (unit inferred).
Series [14] shares this target. Nature of the series: fluorescence binding titration; compound conc. 8000 (unit inferred).
For series [15] the target is unchanged. In words: fluorescence binding titration; compound conc. 31.25 (unit inferred).
For series [16], the target named is Full length His-tagged E. coli SPase (E. coli) (UniProt P00803). In words: fluorescence binding titration; compound conc. 0.E+00 (unit inferred).
Series [17] shares this target. Nature of the series: fluorescence binding titration; compound conc. 1.E+02 (unit inferred).
Series [18] shares this target. In words: fluorescence binding titration; compound conc. 1.E+03 (unit inferred).
In series [19] the target is Full length His-tagged S. aureus SPase (S. aureus) (UniProt P0A070). Nature of the series: fluorescence binding titration; compound conc. 15.625 (unit inferred).
Series [20] has as its target Full length His-tagged E. coli SPase (E. coli) (UniProt P00803). In words: fluorescence binding titration; compound conc. 2.E+01 (unit inferred).
Series [21] has the same target. Nature of the series: fluorescence binding titration; compound conc. 2.E+03 (unit inferred).
For series [22] the target is unchanged. In words: fluorescence binding titration; compound conc. 3.E+01 (unit inferred).
The target is the same in series [23]. Nature of the series: fluorescence binding titration; compound conc. 3.E+02 (unit inferred).
For series [24] the target is unchanged. Nature of the series: fluorescence binding titration; compound conc. 4.E+03 (unit inferred).
For series [25] the target is unchanged. Nature of the series: fluorescence binding titration; compound conc. 5.E+02 (unit inferred).
Series [26] shares this target. In words: fluorescence binding titration; compound conc. 6.E+01 (unit inferred).
Series [27] has the same target. Nature of the series: fluorescence binding titration; compound conc. 8.E+00 (unit inferred).
Series [28] concerns the target T3, decanoyl-LSSPA Y^NO2 A ADK^abzPD (SEQ ID NO: 1).
T3 chain: LSSPAYAADKPD

For series [29], the target named is T4, decanyol-LTPTAY^NO2 A ASKK^abzDD (SEQ ID NO: 2).
T4 chain: LTPTAYAASKKDD

≈ marks a conversion by molar mass, not a printed value. Bounds are passed on as bounds.

As for `CCCCCCCCCCCCCCCC(=O)N(C)[C@H](CO)C(=O)N[C@H](C)C(=O)NCC(=O)N(C)[C@@H]1C(=O)N[C@@H](C)C(=O)N[C@H](C(=O)O)Cc2ccc(O)c(c2)-c2cc1ccc2O` [Compound 1, arylomycin C16], the MIC with C. glutamicum DSM 44475 is 8 µg/mL (≈ 9.08 µM); in series [1] it was 1 µg/mL (≈ 1.13 µM); with E. coli MIG1655, above 64 µg/mL; in [2], 8 µg/mL (≈ 9.08 µM); in the series with P. aeruginosa PA01, above 64 µg/mL; with R. equi DSM 6939 it was 16 µg/mL (≈ 18.2 µM). The minimum inhibitory concentration (MIC) is 16 µg/mL (≈ 18.2 µM) in the series with S. agalactiae ATCC 13813; above 64 µg/mL with S. agalactiae COH-1; above 64 µg/mL with S. aureus ATCC 29213; 4 µg/mL (≈ 4.54 µM) in series [3]; 2 µg/mL (≈ 2.27 µM) in series [4]; 8 µg/mL (≈ 9.08 µM) in series [5]. Besides, the MIC in series [6] was above 64 µg/mL; with S. epidermidis RP62A, 0.3 µg/mL (≈ 0.34 µM); in the series on S. pneumoniae D39 it was 4 µg/mL (≈ 4.54 µM); in the series on S. pneumoniae R800, 8 µg/mL (≈ 9.08 µM); in the series with S. pyogenes ATCC 19615, 16 µg/mL (≈ 18.2 µM); in the series with S. pyogenes M15448 it was 16 µg/mL (≈ 18.2 µM). Also, the Kd at E. coli SPase turned out to be 75 nM; on S. aureus SPase it was 750 nM.
As for Compound 1 (arylomycin C16) (peptide), the % Comp calc is 14% in series [7]; 25.4% in series [8]; 42% in series [9]; 61.1% in [10]; 77.1% in series [11]; 87.6% in [12]. The % Comp calc is 7.4% in series [13]; 93.6% in [14]; 3.8% in series [15]; 0% in [16]; 71% in series [17]; 96% in series [18]. The % Comp calc in series [19] was 1.9%; in [20], 17%; in series [21], 98%; in series [22], 31%; in series [23], 85%; in [24], 99%. The % Comp calc was 92% in series [25], 51% in series [26] and 9% in [27]. Also, the % Comp obs in series [7] worked out at 13.7%; in series [8] it was 25.6%; in [9], 38.6%; in series [10], 59.1%; in [11], 86.1%; in [12], 87.3%. Besides, the % Comp obs in series [13] is 6.4%; in series [14], 87.8%; in series [15], 4.9%; in series [16] it was -1%; in series [17], 69%; in series [18] it was 98%. Besides, the % Comp obs turned out to be 1.7% in [19]; 16% in series [20]; 102% in series [21]; 32% in series [22]; 81% in series [23]; 95% in series [24]. The % Comp obs in [25] is 92%; in series [26], 53%; in [27] it was 10%.

B1: Full length His-tagged S. aureus SPase (protein)
chain: MKKELLEWIISIAVAFVILFIVGKFIVTSYTIKGESMDPTLKDGERVAVNIIGYKTGGLEKGNVVVFHANKNDDYVKRVIGVPGDKVEYKNDTLYVNGKKQDEPYLNYNLKHKQGDYITGTFQVKDLPNANPKSNVIPKGKYLVLGDNREVSKDSRAFGLIDEDQIVGKVSFRFWPFSEFKHNFNPENTKN
Take B1: the “second order rate constant (Kcat/KM) of substrate cleavage” value in series [28] and in series [29] was 10^5 M^-1s^-1 throughout.
